In the supplement of paper PMC11246515:
± gives the standard deviation of the averaged measurements.

Experiment: total protein half-life in vivo (active degradation + dilution); higher = more stable protein
[1] = E. coli NCM3722 delta-clpP delta-lon delta-hslV, growth: N-lim chemostat, doubling time 6 h
[2] = E. coli NCM3722 delta-clpP, growth: N-lim chemostat, doubling time 6 h
[3] = E. coli NCM3722 delta-hslV, growth: N-lim chemostat, doubling time 6 h
[4] = E. coli NCM3722 delta-lon, growth: N-lim chemostat, doubling time 6 h
[5] = E. coli NCM3722 delta-smpB, growth: N-lim chemostat, doubling time 6 h
[6] = wild type E. coli NCM3722, growth: C-lim chemostat, doubling time 3 h
[7] = wild type E. coli NCM3722, growth: C-lim chemostat, doubling time 6 h
[8] = wild type E. coli NCM3722, growth: C-lim chemostat, doubling time 12 h
[9] = wild type E. coli NCM3722, growth: N-lim chemostat, doubling time 6 h
[10] = wild type E. coli NCM3722, growth: N-lim chemostat, doubling time 12 h
[11] = wild type E. coli NCM3722, growth: P-lim chemostat, doubling time 6 h
[12] = wild type E. coli NCM3722, growth: P-lim chemostat, doubling time 12 h

Row | Sequence | total protein half-life in vivo [1] | total protein half-life in vivo [2] | total protein half-life in vivo [3] | total protein half-life in vivo [4] | total protein half-life in vivo [5] | total protein half-life in vivo [6] | total protein half-life in vivo [7] | total protein half-life in vivo [8] | total protein half-life in vivo [9] | total protein half-life in vivo [10] | total protein half-life in vivo [11] | total protein half-life in vivo [12]
1 | MSHLAELVASAKAAISQASDVAALDNVRVEYLGKKGHLTLQMTTLRELPPEERPAAGAVINEAKEQVQQALNARKAELESAALNARLAAETIDVSLPGRRIENGGLHPVTRTIDRIESFFGELGFTVATGPEIEDDYHNFDALNIPGHHPARADHDTFWFDTTRLLRTQTSGVQIRTMKAQQPPIRIIAPGRVYRNDYDQTHTPMFHQMEGLIVDTNISFTNLKGTLHDFLRNFFEEDLQIRFRPSYFPFTEPSAEVDVMGKNGKWLEVLGCGMVHPNVLRNVGIDPEVYSGFAFGMGMERLTMLRYGVTDLRSFFENDLRFLKQFK | 5.84 ± 0.27 h | 6.11 ± 0.96 h | 5.72 ± 0.43 h | 6.07 ± 0.69 h | 4.98 ± 0.13 h | 3.49 ± 0.22 h | 6.19 ± 0.32 h | 12.5 ± 0.82 h | 5.37 ± 0.42 h | 9.85 ± 0.2 h | 6.28 ± 0.36 h | 12.91 ± 0.048 h
2 | MNLTLTRRLWMGFALMALLTLTSTLVGWYNLRFISQVEKDNTQALIPTMNMARQLSEASAWELFAAQNLTSADNEKMWQAQGRMLTAQSLKINALLQALREQGFDTTAIEQQEQEISRSLRQQGELVGQRLQLRQQQQQLSQQIVAAADEIARLAQGQANNATTSAGATQAGIYDLIEQDQRQAAESALDRLIDIDLEYVNQMNELRLSALRVQQMVMNLGLEQIQKNAPTLEKQLNNAVKILQRRQIRIEDPGVRAQVATTLTTVSQYSDLLALYQQDSEISNHLQTLAQNNIAQFAQFSSEVSQLVDTIELRNQHGLAHLEKASARGQYSLLLLGMVSLCALILILWRVVYRSVTRPLAEQTQALQRLLDGDIDSPFPETAGVRELDTIGRLMDAFRSNVHALNRHREQLAAQVKARTAELQELVIEHRQARAEAEKASQAKSAFLAAMSHEIRTPLYGILGTAQLLADNPALNAQRDDLRAITDSGESLLTILNDILDYSAIEAGGKNVSVSDEPFEPRPLLESTLQLMSGRVKGRPIRLATAIADDMPCALMGDPRRIRQVITNLLSNALRFTDEGYIILRSRTDGEQWLVEVEDSGCGIDPAKLAEIFQPFVQVSGKRGGTGLGLTISSRLAQAMGGELSATSTPEVGSCFCLRLPLRVATAPVPKTVNQAVRLDGLRLLLIEDNPLTQRITIEMLKTSGAQIVAVGNAAQALETLQNSEPFAAALVDFDLPDIDGITLARQLAQQYPSLVLIGFSAHVIDETLRQRTSSLFRGIIPKPVPREVLGQLLAHYLQLQVNNDQSLDVSQLNEDAQLMGTEKIHEWLVLFTQHALPLLDEIDIARASQDSEKIKRAAHQLKSSCSSLGMHIASQLCAQLEQQPLSAPLPHEEITRSVAALEAWLHKKDLNAI | 3.75 h | 4.08 h | – | 4.54 ± 0.12 h | 4.12 ± 0.42 h | 2.81 h | – | 6.76 h | 5.462 ± 0.037 h | > 16 h | 6.79 ± 1.1 h | 10.3 ± 0.94 h
3 | MTTHDRVRLQLQALEALLREHQHWRNDEPQPHQFNSTQPFFMDTMEPLEWLQWVLIPRMHDLLDNKQPLPGAFAVAPYYEMALATDHPQRALILAELEKLDALFADDAS | 5.66 ± 0.27 h | – | – | – | 3.91 h | 2.09 h | 4.97 ± 0.19 h | 11.8 ± 5.3 h | 3.394 ± 0.03 h | 6.93 h | 3.49 ± 1.9 h | 7.56 ± 1.8 h
4 | MTTDQHQEILRTEGLSKFFPGVKALDNVDFSLRRGEIMALLGENGAGKSTLIKALTGVYHADRGTIWLEGQAISPKNTAHAQQLGIGTVYQEVNLLPNMSVADNLFIGREPKRFGLLRRKEMEKRATELMASYGFSLDVREPLNRFSVAMQQIVAICRAIDLSAKVLILDEPTASLDTQEVELLFDLMRQLRDRGVSLIFVTHFLDQVYQVSDRITVLRNGSFVGCRETCELPQIELVKMMLGRELDTHALQRAGRTLLSDKPVAAFKNYGKKGTIAPFDLEVRPGEIVGLAGLLGSGRTETAEVIFGIKPADSGTALIKGKPQNLRSPHQASVLGIGFCPEDRKTDGIIAAASVRENIILALQAQRGWLRPISRKEQQEIAERFIRQLGIRTPSTEQPIEFLSGGNQQKVLLSRWLLTRPQFLILDEPTRGIDVGAHAEIIRLIETLCADGLALLVISSELEELVGYADRVIIMRDRKQVAEIPLAELSVPAIMNAIAA [Q6BEX0] | 4.28 h | 6.33 ± 1.2 h | 4.45 h | – | 5.51 h | 3 ± 0.35 h | 6.5 ± 0.63 h | 10.7 ± 0.33 h | – | 9.4 h | 5.93 ± 0.44 h | 11 ± 1.1 h
5 | MMKRNILAVIVPALLVAGTANAAEIYNKDGNKVDLYGKAVGLHYFSKGNGENSYGGNGDMTYARLGFKGETQINSDLTGYGQWEYNFQGNNSEGADAQTGNKTRLAFAGLKYADVGSFDYGRNYGVVYDALGYTDMLPEFGGDTAYSDDFFVGRVGGVATYRNSNFFGLVDGLNFAVQYLGKNERDTARRSNGDGVGGSISYEYEGFGIVGAYGAADRTNLQEAQPLGNGKKAEQWATGLKYDANNIYLAANYGETRNATPITNKFTNTSGFANKTQDVLLVAQYQFDFGLRPSIAYTKSKAKDVEGIGDVDLVNYFEVGATYYFNKNMSTYVDYIINQIDSDNKLGVGSDDTVAVGIVYQF | 5.54 ± 0.65 h | 6.23 ± 0.86 h | 5.98 ± 0.073 h | 6.91 ± 0.67 h | 5.865 ± 0.041 h | 3.19 ± 0.046 h | 6.83 ± 0.66 h | 11.12 ± 0.049 h | 5.95 ± 0.26 h | 10.9 ± 0.82 h | 6.15 ± 0.23 h | –
6 | MSQNLDATAINQIHALISAQGVNEIISKIGADAVALPENFRIHDLEKFNLNRFRFRGALSTASIDDFTRYSKDLADEGTRCFIDADNMRAVSVLNLGTIDEPGHADNTATLKLKKTAPFSALLSVNGERNSQKSLAEWIEDWADYLVGFDANGDAIQATKAAAAIRKITIEANQTADFEDNDFSGKRSLMESVEAKTKDIMPVAFEFKCVPFEGLKERPFKLRLSIITGDRPVLVLRIIQLEAVQEDMANEFRDLLVEKFKDSKVETFIGTFTA | 3.03 ± 0.25 h | 3.16 h | – | – | – | 2.69 h | 5.13 ± 0.22 h | 9.79 ± 0.92 h | – | 5.29 h | 5.71 ± 0.56 h | 15.2 ± 0.98 h
